# Measurements from publication doi:10.1101/2025.01.04.631317.
# Target: RSV post-fusion F (Flys-GCN without StrepII-tag) (Respiratory Syncytial Virus)
# Assay: cryo-EM structure
substance,measurement,value
RSV post-fusion F (Flys-GCN without StrepII-tag),stoichiometry N,3
